Consider six molecules from patent publication US6284879A, “Transport associated protein splice variants” (The General Hospital Corporation, priority 1998, dated 2001).

“Also recorded” adds a separate entry of the source.

The target of experiment [1] is T1, TAP1/TAP2iso heterodimer (Homo sapiens, UniProt Q03518+Q03519).
T1 construct: expressed in transfected cells
T1 sequence (Q03519 1-653 isoform Q03519-2 L359K/V379I): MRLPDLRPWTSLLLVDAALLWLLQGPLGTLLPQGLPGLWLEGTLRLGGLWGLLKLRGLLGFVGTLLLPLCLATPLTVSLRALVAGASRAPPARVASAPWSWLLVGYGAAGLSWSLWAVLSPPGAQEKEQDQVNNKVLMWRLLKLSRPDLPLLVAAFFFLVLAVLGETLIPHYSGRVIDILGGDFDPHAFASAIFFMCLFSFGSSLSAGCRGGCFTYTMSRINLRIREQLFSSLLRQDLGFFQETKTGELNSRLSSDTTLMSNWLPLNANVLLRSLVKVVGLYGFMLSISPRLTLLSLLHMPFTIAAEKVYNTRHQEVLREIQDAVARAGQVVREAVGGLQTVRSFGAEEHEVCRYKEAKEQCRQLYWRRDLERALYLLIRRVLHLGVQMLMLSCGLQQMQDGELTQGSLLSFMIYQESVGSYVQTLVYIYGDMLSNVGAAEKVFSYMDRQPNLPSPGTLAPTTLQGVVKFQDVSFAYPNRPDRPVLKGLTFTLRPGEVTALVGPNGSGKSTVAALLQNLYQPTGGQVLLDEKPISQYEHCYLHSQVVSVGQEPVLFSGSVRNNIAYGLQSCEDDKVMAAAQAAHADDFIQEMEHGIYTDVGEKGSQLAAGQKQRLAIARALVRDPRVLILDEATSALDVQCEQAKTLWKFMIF
T1 sequence (Q03518 1-748): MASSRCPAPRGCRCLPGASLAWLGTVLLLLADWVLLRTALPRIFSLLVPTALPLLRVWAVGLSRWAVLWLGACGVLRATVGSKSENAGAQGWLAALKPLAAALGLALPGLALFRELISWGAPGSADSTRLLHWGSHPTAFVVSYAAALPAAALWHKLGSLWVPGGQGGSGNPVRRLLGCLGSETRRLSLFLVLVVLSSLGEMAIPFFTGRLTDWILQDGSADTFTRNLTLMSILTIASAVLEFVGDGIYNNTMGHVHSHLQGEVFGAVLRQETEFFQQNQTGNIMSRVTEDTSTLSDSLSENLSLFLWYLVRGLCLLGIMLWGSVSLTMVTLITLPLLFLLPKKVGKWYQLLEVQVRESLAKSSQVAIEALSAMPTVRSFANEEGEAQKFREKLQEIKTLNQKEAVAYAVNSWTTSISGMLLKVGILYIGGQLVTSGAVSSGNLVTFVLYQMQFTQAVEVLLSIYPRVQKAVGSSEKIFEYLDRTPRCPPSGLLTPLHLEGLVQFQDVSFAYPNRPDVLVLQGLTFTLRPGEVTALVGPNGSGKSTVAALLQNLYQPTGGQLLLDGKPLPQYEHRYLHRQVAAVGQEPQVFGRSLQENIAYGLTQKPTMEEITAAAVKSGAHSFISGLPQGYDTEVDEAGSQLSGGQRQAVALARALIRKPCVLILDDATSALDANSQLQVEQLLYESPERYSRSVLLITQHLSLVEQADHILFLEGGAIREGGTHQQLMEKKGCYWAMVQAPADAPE
Kind of experiment: competition with transport of 125I-Peptide RRYQNSTEL in TAP1/TAP2iso transfectants. It counts as cell-based. The note with it: unlabeled competitor peptide; comparison in words. On the procedure: (§1) Glycosylated ^125 I Peptide […] (SEQ ID NO: 6), Peptide […] (SEQ ID NO: 7), or Peptide […] (SEQ ID NO: 8) was recovered and measured. The peptide translocation assay was performed essentially as previously described (Neefjes et al., Science, 261:769 (1993); and Momburg et al., J. Exp. Med., 179:1613 (1994)). Briefly, 2.5-5.0×10^6 T2 cell (transfected or untransfected) were washed once with incubation buffer (130 mM KCl, 10 mM NaCl, 1 mM CaC2, 2 mM EDTA, 2 mM MgCl2, 5 mM Hepes, pH 7.3) and permeabilized for 10 minutes at 37° C. with streptolysin O (2 IU/ml) (Wellcome, Beckenham, UK) in 50 μl of incubation buffer. After further addition of 10 μl of 100 mM adenosine triphosphate, 10 μl of ^125 I-labeled peptide (~15 pM), and 30 μl of incubation buffer, cells were incubated for an additional 10 minutes at 37° C. Transport was terminated by the addition of 1 ml of 1% NP-40 detergent, after which nuclei were removed by centrifugation and glycosylated peptides were recovered using concanavalin A-Sepharose (Sigma, St. Louis, Mo.) and quantitated with a gamma counter (LKB-Wallac).
Differential peptide selectivity of the TAP1/TAP2 and TAP1/TAP2iso heterodimers was further investigated by competition experiments with ^125 I-labeled Peptide […] (SEQ ID NO: 6) and various unlabeled peptides: Peptide […] (SEQ ID NO: 6); Peptide […] (SEQ ID NO: 7); Peptide […] (SEQ ID NO: 8); Peptide […] (SEQ ID NO: 9), the S1-24 fragment of human adrenocorticotropic hormone); and Peptide […] (SEQ ID NO: 10), residues 22 to 30 (human insulin B chain). The iodinated 9-mer Peptide […] was translocated in the presence of different concentrations of unlabeled competition peptides. The glycosylated peptides were recovered by Con A-Sepharose and quantitated. […] (self); (6B) competition of ^125 I-Peptide […] with Peptide […]; (6C) competition of ^125 I-Peptide […] with Peptide […]; and (6D) competition of ^125 I-Peptide […] with Peptide […]; and (6E) competition of ^125 I-Peptide […] with Peptide […].

The subject of experiment [2] is T1 cells (naturally co-express both TAP2 and TAP2iso). The note with it: in words.
Experiment [3] deals with TAP1/TAP2iso heterodimer (compared with TAP1/TAP2). Kind of experiment: translocation of 125I-labeled peptides into the ER of permeabilized T2 transfectants. As to conditions: 125I-labeled glycosylated peptide recovered from streptolysin O permeabilized T2 transfectants; comparison in words. Format: cell-based, human. The protocol:
10 mM stock solutions of peptides were prepared in dimethyl sulfoxide. Peptides (25 μg) were directly iodinated at unique tyrosine residues with the use of chloramine T (Sigma, St. Louis, Mo.), and free iodine was removed by gel filtration using Sephadex G 10 (Pharmacia) column chromatography.
as §1

For experiment [4], the target named is T2, TAP1/TAP2iso heterodimer (human).
T2 chain 1: T1 sequence (Q03518 1-748)
T2 chain 2: T1 sequence (Q03519 1-653 isoform Q03519-2 L359K/V379I)
Nature of the experiment: cell-based or functional assay.

For experiment [5], the target named is T3, TAP1/TAP2 heterodimer (human).
T3 chain 1: T1 sequence (Q03518 1-748)
T3 chain 2: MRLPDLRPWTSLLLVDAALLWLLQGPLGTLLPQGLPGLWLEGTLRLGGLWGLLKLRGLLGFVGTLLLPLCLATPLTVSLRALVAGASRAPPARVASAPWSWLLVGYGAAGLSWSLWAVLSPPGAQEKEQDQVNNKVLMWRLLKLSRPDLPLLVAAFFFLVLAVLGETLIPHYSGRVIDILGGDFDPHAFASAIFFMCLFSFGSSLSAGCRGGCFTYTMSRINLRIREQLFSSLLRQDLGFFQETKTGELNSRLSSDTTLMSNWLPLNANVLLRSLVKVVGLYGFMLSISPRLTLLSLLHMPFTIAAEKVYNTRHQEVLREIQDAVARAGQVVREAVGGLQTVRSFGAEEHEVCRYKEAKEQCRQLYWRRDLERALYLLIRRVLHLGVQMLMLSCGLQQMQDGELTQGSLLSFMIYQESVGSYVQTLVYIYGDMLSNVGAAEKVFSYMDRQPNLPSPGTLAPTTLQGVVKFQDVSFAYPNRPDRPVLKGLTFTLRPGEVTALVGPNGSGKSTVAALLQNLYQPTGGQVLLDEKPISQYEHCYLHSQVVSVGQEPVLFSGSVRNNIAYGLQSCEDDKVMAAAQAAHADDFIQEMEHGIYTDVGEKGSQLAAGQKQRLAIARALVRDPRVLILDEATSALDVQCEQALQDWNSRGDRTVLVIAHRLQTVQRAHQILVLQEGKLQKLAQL
Kind of experiment: cell-based or functional assay.

In experiment [6] the test system is HLA class I (A2) on T2 cells. Kind of experiment: restoration of surface expression of HLA class I (A2) on transfected T2 cells, flow cytometry. It counts as cell-based, human. On the procedure:
Plasmid DNAs were prepared using MAXI-PREP kits (Qiagen). TAP1- and TAP2-deficient T2 cells (donated by P. Cresswell, Howard Hughes Medical Institute, Yale University) (1-2×10^7 cells/ml) were transfected by electroporation with 10 μg of TAP1 and TAP2 or TAP2iso linear plasmid DNA in a 0.4-cm cuvette at 260 V and 960 μF. Subcloning and selection of transfectants were performed by culturing in the presence of hygromycin (250 μg/ml) or histidinol ([…]) for the PREP 4 and PREP8 vectors, respectively.
Immune complexes were detected with fluorescein isothiocyanate-conjugated goat anti-mouse IgG antibodies (Coulter, Hialeah, Fla.) and an Epics Elite flow cytometer (Coulter).
T2 cells were transfected with TAP1 cDNA in combination with TAP2 or TAPiso cDNAs as described above.
Background: In flow cytometry, cells or beads pass a laser one at a time.

Consider IYLGPFSPNVTL [Peptide IYLGPFSPNVTL], for which, in experiment [1], the “inhibition of transport of 125I-Peptide RRYQNSTEL, TAP1/TAP2iso compared with TAP1/TAP2 transfectants” value is reported as “markedly greater extent in TAP1/TAP2iso transfectants”. In addition, in experiment [2], the “transportation of test peptides (relative IC50)” value was “equal efficiency”. Also, the “amount of translocated peptide, TAP1/TAP2iso compared with TAP1/TAP2” value in experiment [3] is “transported to a greater extent by TAP/TAP2iso; also recorded: four times more efficiently by the TAP1/TAP2iso heterodimer”.

Consider “RGFFYTPKA [Peptide RGFFYTPKA, residues 22 to 30 (human insulin B chain)]”, for which, in experiment [1], the “inhibition of transport of 125I-Peptide RRYQNSTEL, TAP1/TAP2iso compared with TAP1/TAP2 transfectants” value is on record as “in TAP1/TAP2iso to a greater extent”.

TVDNKTRYE [Peptide TVDNKTRYE]: the “inhibition of transport of 125I-Peptide RRYQNSTEL, TAP1/TAP2iso compared with TAP1/TAP2 transfectants” value in experiment [1] was “markedly greater extent in TAP1/TAP2 transfectants”. Further, the “transportation of test peptides (relative IC50)” value in experiment [2] was “equal efficiency”. Moreover, the “amount of translocated peptide, TAP1/TAP2iso compared with TAP1/TAP2” value in experiment [3] is reported as “transported to a greater extent by TAP1/TAP2; also recorded: transported more efficiently in the TAP1/TAP2 transfectant”.

B1: Peptide RGFFYTPKA (peptide)
peptide: RGFFYTPKA
Consider B1, for which the “IC50 of inhibition of transport of 125I-labeled Peptide …” value was 110 nM in experiment [4] and 300 nM in experiment [5].

B2: TAP1/TAP2iso: novel TAP heterodimer of TAP1 and splice variant TAP2iso, expressed from transfected cDNAs (protein)
chain 1: T1 sequence (Q03518 1-748)
chain 2: T1 sequence (Q03519 1-653 isoform Q03519-2 L359K/V379I)
For the molecule B2, the “Mean fluorescence of HLA class 1 (A2) Mean ± SD” value in experiment [6] (T2 cells transfected with the named cDNAs, four separate experiments, at least three stable clones) is listed as 11.16 ± .50. For the same molecule, the “surface expression of HLA/MHC class I” value in experiment [6] (T2 cells transfected with the named cDNAs, in words) is listed as “restored surface expression”. The “surface MHC class I expression, greater than in cells transfected with TAP1-TAP2 cDNAs” value in experiment [6] (transfected T2 cells) is listed as 30%.

B3: unlabeled Peptide RRYQNSTEL (peptide)
peptide: RRYQNSTEL
Consider B3, for which the “IC50 of inhibition of transport of 125I-labeled Peptide …” value in experiment [4] and in experiment [5] was around 150 nM each time.
